According to patent US20150056199A1:
Read-outs that look alike come from different tables or passages of the source.

How the values were obtained:
Assay in all cases: cell-based or functional assay
[1] = molecular target: human GDF15 (hGDF15), mature, generated in-house in CHO cells (human) (UniProt Q99988)
[2] = molecular target: human TGFβ1 (PeproTech) (human) (UniProt P01137)
[3] = molecular target: human TGFβ3 (PeproTech) (human) (UniProt P10600)
[4] = molecular target: human TGFβ1 (PeproTech) (human) (UniProt P01137); remark: listed apart in the source
[5] = molecular target: human TGFβ3 (PeproTech) (human) (UniProt P10600); remark: listed apart in the source
[6] = molecular target: murine GDF15 (mGDF15), mature, generated in-house in CHO cells (mouse) (UniProt Q9Z0J7)
murine GDF15 (mGDF15), mature, generated in-house in CHO cells (mouse), sequence (Q9Z0J7 192-303): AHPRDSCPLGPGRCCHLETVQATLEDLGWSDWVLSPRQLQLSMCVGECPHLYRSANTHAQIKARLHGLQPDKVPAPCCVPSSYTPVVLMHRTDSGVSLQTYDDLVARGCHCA

hTβRIIshort(29-159)-hG2Fc (Fc fusion), sequence (chain): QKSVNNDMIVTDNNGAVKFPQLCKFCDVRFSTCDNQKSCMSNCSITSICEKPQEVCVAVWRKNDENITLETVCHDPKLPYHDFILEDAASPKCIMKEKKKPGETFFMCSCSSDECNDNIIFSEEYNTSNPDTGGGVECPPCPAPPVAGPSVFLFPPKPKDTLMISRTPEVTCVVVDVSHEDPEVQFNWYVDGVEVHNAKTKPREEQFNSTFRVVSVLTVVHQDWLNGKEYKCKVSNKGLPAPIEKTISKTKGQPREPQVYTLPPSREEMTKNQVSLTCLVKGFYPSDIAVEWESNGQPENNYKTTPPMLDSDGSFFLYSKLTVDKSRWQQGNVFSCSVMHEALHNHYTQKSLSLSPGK
hTβRIIshort(35-159)-hG2Fc (Fc fusion), sequence (chain): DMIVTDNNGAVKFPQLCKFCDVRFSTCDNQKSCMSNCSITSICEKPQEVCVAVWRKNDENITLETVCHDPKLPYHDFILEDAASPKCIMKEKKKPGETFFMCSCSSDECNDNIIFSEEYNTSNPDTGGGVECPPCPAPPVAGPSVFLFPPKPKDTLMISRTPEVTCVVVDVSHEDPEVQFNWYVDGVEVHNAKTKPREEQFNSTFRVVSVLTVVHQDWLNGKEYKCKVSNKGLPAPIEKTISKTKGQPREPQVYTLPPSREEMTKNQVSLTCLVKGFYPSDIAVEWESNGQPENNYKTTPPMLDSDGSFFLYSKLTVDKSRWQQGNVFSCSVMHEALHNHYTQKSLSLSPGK
hTβRIIshort(23-153)-hG2Fc (Fc fusion), sequence (chain): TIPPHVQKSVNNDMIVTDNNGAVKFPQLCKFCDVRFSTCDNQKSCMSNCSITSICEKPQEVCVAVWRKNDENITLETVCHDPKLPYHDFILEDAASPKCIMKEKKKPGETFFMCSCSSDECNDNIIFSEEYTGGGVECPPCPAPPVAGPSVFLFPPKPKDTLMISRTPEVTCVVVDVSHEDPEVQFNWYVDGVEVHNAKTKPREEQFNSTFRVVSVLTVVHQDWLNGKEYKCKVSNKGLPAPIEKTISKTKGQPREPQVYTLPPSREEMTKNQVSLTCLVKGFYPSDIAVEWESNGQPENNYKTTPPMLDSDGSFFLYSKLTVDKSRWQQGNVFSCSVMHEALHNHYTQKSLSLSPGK
human GDF15 (hGDF15), mature, generated in-house in CHO cells (human), sequence (Q99988 197-308): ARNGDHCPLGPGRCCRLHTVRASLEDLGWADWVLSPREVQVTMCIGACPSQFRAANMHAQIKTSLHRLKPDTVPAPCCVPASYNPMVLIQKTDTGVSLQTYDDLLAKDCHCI
human TGFβ3 (PeproTech) (human), sequence (P10600 301-412 limits assumed): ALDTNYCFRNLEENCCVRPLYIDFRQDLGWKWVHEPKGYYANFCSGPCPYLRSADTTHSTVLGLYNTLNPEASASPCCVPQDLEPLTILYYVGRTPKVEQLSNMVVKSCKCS
human TGFβ1 (PeproTech) (human), sequence (P01137 279-390 limits assumed): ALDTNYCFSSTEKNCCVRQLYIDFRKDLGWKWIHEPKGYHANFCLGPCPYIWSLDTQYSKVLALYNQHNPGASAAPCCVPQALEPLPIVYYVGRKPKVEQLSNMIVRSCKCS
hTβRIIshort(23-159)-hG2Fc (Fc fusion), sequence (chain): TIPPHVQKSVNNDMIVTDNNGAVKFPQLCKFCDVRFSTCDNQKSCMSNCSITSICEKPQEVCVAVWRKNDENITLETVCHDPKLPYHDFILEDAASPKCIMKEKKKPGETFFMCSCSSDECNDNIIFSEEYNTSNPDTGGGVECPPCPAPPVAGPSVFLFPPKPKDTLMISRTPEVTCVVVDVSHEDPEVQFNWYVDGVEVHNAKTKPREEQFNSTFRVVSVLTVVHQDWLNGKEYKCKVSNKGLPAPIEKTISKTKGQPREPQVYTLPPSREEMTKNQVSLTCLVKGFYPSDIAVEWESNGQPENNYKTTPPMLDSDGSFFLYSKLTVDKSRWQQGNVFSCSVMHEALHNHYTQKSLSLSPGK

IC50 (nM), A549 CAGA-12 reporter gene assay, hGDF15 (70 ng/ml) [1] | IC50 (nM), A549 CAGA-12 reporter gene assay, hTGFβ1 (640 pg/ml) [2] | IC50 (nM), A549 CAGA-12 reporter gene assay, hTGFβ3 (270 pg/ml) [3] | IC50 (nM), A549 CAGA-12 reporter gene assay, hTGFβ1 (640 pg/ml) [4] | IC50 (nM), A549 CAGA-12 reporter gene assay, hTGFβ3 (270 pg/ml) [5] | IC50 (nM), A549 CAGA-12 reporter gene assay, mGDF15 (35 ng/ml) [6] | IC50 (nM), A549 CAGA-12 reporter gene assay, hGDF15 (70 or 112 ng/ml) [1] | Substance
0.18 nM | 2.62 nM | 0.14 nM |  |  |  |  | hTβRIIshort(23-153)-hG2Fc (Fc fusion)
2.42 nM | 17.7 nM |  |  |  |  |  | hTβRIIshort(23-153/N70D)-hG2Fc (Fc fusion)
0.14 nM | 0.52 nM | 0.37 nM | 1.73 nM | 0.14 nM | 0.12 nM |  | hTβRIIshort(23-159)-hG2Fc (Fc fusion)
 | 2.51 nM | > 7.5 nM |  |  |  | 0.92 nM | hTβRIIshort(35-159)-hG2Fc (Fc fusion)

The next lines start with the substance.

Substance | IC50 (nM), A549 CAGA-12 reporter gene assay, hGDF15 (70 ng/ml) [1] | IC50 (nM), A549 CAGA-12 reporter gene assay, hTGFβ1 (640 pg/ml) [2] | IC50 (nM), A549 CAGA-12 reporter gene assay, hTGFβ3 (270 pg/ml) [3] | IC50 (nM), A549 CAGA-12 reporter gene assay, hTGFβ1 (640 pg/ml) [4] | IC50 (nM), A549 CAGA-12 reporter gene assay, hTGFβ3 (270 pg/ml) [5] | IC50 (nM), A549 CAGA-12 reporter gene assay, mGDF15 (35 ng/ml) [6] | IC50 (nM), A549 CAGA-12 reporter gene assay, hGDF15 (70 or 112 ng/ml) [1]
hTβRIIshort(23-159/D110K)-hG2Fc (Fc fusion) |  |  |  | > 73.6 nM |  | 0.7 nM | 
hTβRIIshort(29-159)-hG2Fc (Fc fusion) |  | 2.05 nM | > 7.5 nM |  |  |  | 0.4 nM
